For assay [1], the target named is T1, recombinant human PD-L2 (human PD-L2 antigen) (human, UniProt Q9BQ51 20-219, limits assumed).
T1 construct: The Biacore analyte and the ELISA antigen are only called human PD-L2 antigen / recombinant hPD-L2; Whole entry named; also called hPD-L2; recombinant hPD-L2
T1 sequence (looked up): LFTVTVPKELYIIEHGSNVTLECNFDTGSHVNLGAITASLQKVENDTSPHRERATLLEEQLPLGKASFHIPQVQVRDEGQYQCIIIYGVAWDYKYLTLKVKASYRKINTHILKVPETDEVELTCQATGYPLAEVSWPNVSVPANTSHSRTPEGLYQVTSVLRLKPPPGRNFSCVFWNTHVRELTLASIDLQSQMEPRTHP
The experiment in a line: SPR (Biacore 8K), single cycle kinetics, antibody in culture supernatant, human PD-L2 antigen. An excerpt: Table 2: Single cycle kinetic parameters of chimeric (VH0/VK0) and humanized variants (tested as cell culture supernatants) binding to human PD-L2 antigen as determined using the Biacore 8K. As used herein, the term “KD” is intended to refer to the dissociation equilibrium constant of a particular antibody-antigen interaction, ka is the binding rate constant and kd is the dissociation rate constant. The binding affinity of antibodies of the disclosed invention may be measured or determined by standard antibody-antigen assays. The relative KD was calculated by dividing the KD of the humanized variant by that of the VH0/VK0 assayed in the same experiment.
On the technique in general: SPR reads the build-up and loss of mass on a sensor chip optically.

The target of assay [2] is T2, human PD-L2 on CHO-K1 cells of the Promega PD-1/PD-L2 blockade bioassay (human, UniProt Q9BQ51 20-273).
T2 sequence (looked up): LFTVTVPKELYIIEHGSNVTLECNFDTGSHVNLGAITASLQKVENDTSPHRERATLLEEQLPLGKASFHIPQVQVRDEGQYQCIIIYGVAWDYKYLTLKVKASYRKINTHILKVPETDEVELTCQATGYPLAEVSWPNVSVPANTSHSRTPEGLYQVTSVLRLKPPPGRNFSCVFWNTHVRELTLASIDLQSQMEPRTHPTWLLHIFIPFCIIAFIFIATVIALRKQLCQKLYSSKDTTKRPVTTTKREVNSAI
The experiment in a line: cell-based or functional assay.

The target of assay [3] is T2, human PD-L2 on CHO-K1 cells of the …. The experiment in a line: cell-based or functional assay. The source holds these as a separate data set.

Substitutions are numbered along the chain they refer to. Read-outs that look alike come from different tables or passages of the source.

B1: VH0/VK1 (antibody, V domains shown)
VH: QVQLQQSGAELVRPGTSVKVSCKASGYAFSNYFIEWVKQRPGQGLEWIGLNIPGSGGSNYAEKFKGKATLTADKSSSTAYMQLSSLTSEDSAVYFCARRRLPPDWYFDVWGTGTTVTVSS
VL: DVVMTQSPLSLPVTLGQPASISCRSSQSLVHSDGNTYLHWYQQKPGQPPKLLIYKVSNRFSGVPDRFSGSGSGTDFTLKISRVEAEDVGVYFCSQSTHVPWTFGGGTKVEIK
notes: hIgG1 backbone, CHO expressed
Turning to B1, in assay [1], the Kd (usually the constant that tells how readily two partners part at equilibrium) was determined as 0.0379 nM; the “Relative KD (KD of variant / KD of VH0/VK0)” value was 1.06; the koff (in general, a measure of how fast the partners let go of each other) was determined as 9.88e-05 s⁻¹.

B2: VH6/VK2 (antibody, V domains shown)
VH: QVQLVQSGAEVKKPGSSVKVSCKASGYSFSNYFIEWVKQPPGKGLEWIGLNIPGSGGSNYAEKFKGRVTITADKSTSTAYMELSSLRSEDTAVYYCARRRLPPDWYFDVWGQGTTVTVSS
VL: B1 VL with F92Y
notes: hIgG1 backbone, CHO expressed
For B2, in assay [1], the Kd amounted to 0.0588 nM, the “Relative KD (KD of variant / KD of VH0/VK0)” value was 1.64 and the koff was determined as 0.000128 s⁻¹. Besides, in assay [2], the “EC50 (PD-1/PD-L2 blockade reporter assay, luminescence)” value (shortened to “EC50”) turned out to be 0.64 nM.

B3: VH7/VK2 (antibody, V domains shown)
VH: B2 VH with V11L, S28A, V68A
VL: B1 VL with F92Y
notes: hIgG1 backbone, CHO expressed
Regarding B3, in assay [1], the Kd was 0.0523 nM, the “Relative KD (KD of variant / KD of VH0/VK0)” value worked out at 1.46 and the koff is 0.000118 s⁻¹. For the same molecule, in assay [2], the “EC50” value came to 0.6 nM.

B4: VH3/VK3 (antibody, V domains shown)
VH: B2 VH with S28A, T91S, Y95F
VL: B1 VL with D33G
notes: hIgG1 backbone, CHO expressed
B4: in assay [1], the Kd was determined as 0.314 nM, the “Relative KD (KD of variant / KD of VH0/VK0)” value is 8.77 and the koff is 0.000497 s⁻¹.

B5: VH2/VK2 (antibody, V domains shown)
VH: B2 VH with S28A, V68A, T91S, Y95F
VL: B1 VL with F92Y
notes: hIgG1 backbone, CHO expressed
As for B5, in assay [1], the Kd is 0.0555 nM, the “Relative KD (KD of variant / KD of VH0/VK0)” value is 1.55 and the koff came to 0.000122 s⁻¹.

B6: VH1/VK3 (antibody, V domains shown)
VH: B2 VH with V11L, S28A, V68A, R87T, T91S, Y95F
VL: B1 VL with D33G
notes: hIgG1 backbone, CHO expressed
Take B6: in assay [1], the Kd was found to be 0.223 nM, the “Relative KD (KD of variant / KD of VH0/VK0)” value was 6.23 and the koff is 0.000365 s⁻¹.

B7: VH8/VK3 (antibody, V domains shown)
VH: B2 VH with S28A, V68A
VL: B1 VL with D33G
notes: hIgG1 backbone, CHO expressed
As for B7, in assay [1], the Kd worked out at 0.244 nM, the “Relative KD (KD of variant / KD of VH0/VK0)” value is 6.82 and the koff worked out at 0.000388 s⁻¹.

B8: VH2/VK3 (antibody, V domains shown)
VH: B2 VH with S28A, V68A, T91S, Y95F
VL: B1 VL with D33G
notes: hIgG1 backbone, CHO expressed
Turning to B8, in assay [1], the Kd amounted to 0.267 nM, the “Relative KD (KD of variant / KD of VH0/VK0)” value was 7.46 and the koff turned out to be 0.000414 s⁻¹.

B9: VH1/VK1 (antibody, V domains shown)
VH: B2 VH with V11L, S28A, V68A, R87T, T91S, Y95F
VL: B1 VL
notes: hIgG1 backbone, CHO expressed
As to B9, in assay [1], the Kd is 0.0475 nM, the “Relative KD (KD of variant / KD of VH0/VK0)” value came out at 1.33 and the koff amounted to 0.00011 s⁻¹.

B10: VH1/VK2 (antibody, V domains shown)
VH: B2 VH with V11L, S28A, V68A, R87T, T91S, Y95F
VL: B1 VL with F92Y
notes: hIgG1 backbone, CHO expressed
With B10, in assay [1], the Kd was 0.0487 nM, the “Relative KD (KD of variant / KD of VH0/VK0)” value is 1.36 and the dissociation rate constant (koff) amounted to 0.000116 s⁻¹.

B11: VH4/VK2 (antibody, V domains shown)
VH: B2 VH with S28A
VL: B1 VL with F92Y
notes: hIgG1 backbone, CHO expressed
For B11, in assay [1], the Kd amounted to 0.0596 nM, the “Relative KD (KD of variant / KD of VH0/VK0)” value was 1.66 and the koff was 0.000129 s⁻¹.

B12: VH3/VK2 (antibody, V domains shown)
VH: B2 VH with S28A, T91S, Y95F
VL: B1 VL with F92Y
notes: hIgG1 backbone, CHO expressed
On to B12, for which, in assay [1], the Kd is 0.0604 nM, the “Relative KD (KD of variant / KD of VH0/VK0)” value stood at 1.69 and the koff was 0.000132 s⁻¹.

B13: VH4/VK1 (antibody, V domains shown)
VH: B2 VH with S28A
VL: B1 VL
notes: hIgG1 backbone, CHO expressed
In the case of B13, in assay [1], the Kd was determined as 0.0586 nM, the “Relative KD (KD of variant / KD of VH0/VK0)” value amounted to 1.64 and the koff is 0.000125 s⁻¹.

B14: VH6/VK1 (antibody, V domains shown)
VH: B2 VH
VL: B1 VL
notes: hIgG1 backbone, CHO expressed
Take B14: in assay [1], the Kd was found to be 0.0529 nM, the “Relative KD (KD of variant / KD of VH0/VK0)” value came to 1.48 and the koff came out at 0.000121 s⁻¹. In addition, the “EC50” value in assay [2] was found to be 0.82 nM.

B15: VH7/VK3 (antibody, V domains shown)
VH: B2 VH with V11L, S28A, V68A
VL: B1 VL with D33G
notes: hIgG1 backbone, CHO expressed
Consider B15, for which, in assay [1], the Kd stood at 0.222 nM, the “Relative KD (KD of variant / KD of VH0/VK0)” value was 6.2 and the koff was 0.000344 s⁻¹.

B16: VH8/VK1 (antibody, V domains shown)
VH: B2 VH with S28A, V68A
VL: B1 VL
notes: hIgG1 backbone, CHO expressed
With B16, in assay [1], the Kd came out at 0.053 nM, the “Relative KD (KD of variant / KD of VH0/VK0)” value stood at 1.48 and the koff was 0.00012 s⁻¹.

B17: VH7/VK1 (antibody, V domains shown)
VH: B2 VH with V11L, S28A, V68A
VL: B1 VL
notes: hIgG1 backbone, CHO expressed
In the case of B17, in assay [1], the Kd came out at 0.0499 nM, the “Relative KD (KD of variant / KD of VH0/VK0)” value turned out to be 1.39 and the koff is 0.000113 s⁻¹.

B18: VH2/VK1 (antibody, V domains shown)
VH: B2 VH with S28A, V68A, T91S, Y95F
VL: B1 VL
notes: hIgG1 backbone, CHO expressed
B18: in assay [1], the equilibrium dissociation constant (Kd) came to 0.0551 nM, the “Relative KD (KD of variant / KD of VH0/VK0)” value was 1.54 and the koff was 0.000119 s⁻¹.

B19: VH6/VK3 (antibody, V domains shown)
VH: B2 VH
VL: B1 VL with D33G
notes: hIgG1 backbone, CHO expressed
As to B19, the “EC50” value in assay [3] stood at 1.11 nM. In assay [1], the Kd was found to be 0.262 nM, the “Relative KD (KD of variant / KD of VH0/VK0)” value came to 7.32 and the koff is 0.000444 s⁻¹. In addition, the “EC50” value in assay [2] was found to be 0.62 nM.

B20: VH3/VK1 (antibody, V domains shown)
VH: B2 VH with S28A, T91S, Y95F
VL: B1 VL
notes: hIgG1 backbone, CHO expressed
Consider B20, for which, in assay [1], the Kd worked out at 0.0606 nM, the “Relative KD (KD of variant / KD of VH0/VK0)” value came out at 1.69 and the koff was found to be 0.000128 s⁻¹.

B21: VH4/VK3 (antibody, V domains shown)
VH: B2 VH with S28A
VL: B1 VL with D33G
notes: hIgG1 backbone, CHO expressed
B21: in assay [1], the Kd was determined as 0.287 nM, the “Relative KD (KD of variant / KD of VH0/VK0)” value came out at 8.02 and the koff amounted to 0.000466 s⁻¹.

B22: VH1/VK0 (antibody, V domains shown)
VH: B2 VH with V11L, S28A, V68A, R87T, T91S, Y95F
VL: B1 VL with S7T, T14S, Q17D, P18Q, Q42L, P48S, V88L, V109L
notes: hIgG1 backbone, CHO expressed
Turning to B22, in assay [1], the Kd was 0.0427 nM, the “Relative KD (KD of variant / KD of VH0/VK0)” value turned out to be 1.19 and the koff turned out to be 0.000109 s⁻¹.

These data come from patent US20250179187A1 (REJUVERON SENESCENCE THERAPEUTICS, published 2025).
